Results on one substance are retold here after paper PMC7365037.

pKd: −log10 of the molar value.

A word on the pKd: it is −log10 of the Kd, conventionally taken in molar units. The low end stands for a high Kd, the high end for a low Kd.

What all share (experiment): ITC
(In general: ITC needs no label: the signal is the heat of the interaction.)

The target in test [1] is HP1α K46A/E52D/D62F engineered chromodomain (His-tagged) (D. melanogaster) (UniProt P05205).
The target in test [2] is HP1α chromodomain from D. melanogaster, wild-type (His-tagged) (D. melanogaster) (UniProt P05205).
Test [3] has as its target human CBX1 chromodomain double mutant K46A/D62F (HP1α numbering) (His-tagged) (human).
Test [4] has as its target human CBX1 chromodomain, wild-type (His-tagged) (human) (UniProt P83916).
Test [5] deals with human CBX3 chromodomain double mutant K46A/D62F (HP1α numbering) (His-tagged) (human).
Test [6] has as its target human CBX3 chromodomain, wild-type (His-tagged) (human) (UniProt Q13185).
UniProt Q13185, sequence (Q13185 25-81): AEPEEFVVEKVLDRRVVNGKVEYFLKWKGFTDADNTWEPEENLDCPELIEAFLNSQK

UniProt P83916, sequence (P83916 15-73): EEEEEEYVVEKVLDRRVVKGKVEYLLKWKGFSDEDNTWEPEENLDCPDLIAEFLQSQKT

With H3K9me3 peptide (used in ITC), the pKd in test [1] is 6.15; in test [2], 4.85; in test [3] it was 6.89; in test [4] it was 6.22; in test [5], 6.40; in test [6] it was 5.52.
